Laboratory results as given in the nanobody polyreactivity screen of Harvey et al. (2022).

Test: yeast display, Sf9 membrane polyspecificity reagent, FACS + sequencing; frameworks hold sequencing errors
Summary of the method: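 After 36–48 hours of galactose induction, yeast (Saccharomyces cerevisiae BJ5465) displaying a synthetic nanobody library were stained at 4 °C for 1 hour with 10% biotinylated, detergent-solubilized Sf9 membrane reagent. Streptavidin microbeads enriched the stained cells before FACS sorting into low and high (top ~1%) gates on anti-HA and streptavidin fluorescence. Each clone's polyreactivity label reflects its gate of origin.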

Row | Sequence | polyreactivity (PSR sort gate)
1 | QVQLVESGGGLVQAGGSLRLSCAASGRIFVANAMGWYRQAPGKERELVAAISGRGSRTYYADSVKGRFTISRDNAKNAVYLQMNSLKPEDTAVYYCNARQRRNPGGYGYWGQGTQVTVSS | high polyreactivity
2 | QVQLVESGGGLVQAGGSLRLSCAASGRIFGYNAMGWYRQAPGKERELVASITSAASTYYADSVKGRFTISRDNAKNTVYLQMNSLKPEDTAVYYCAASAYSALFYWYDYWGQGTQVTVSW | high polyreactivity
3 | QVQLVESGGGLVQAGGSLRLSCAASGSTFGVNAMGWYRQAPGKERELVAAIRWSDGSTYYADSVKGRFTISRDNAKNTVYLQMNSLKPEDTAVYYCNTDLTVYFPVEYWGQGTQVTVSS | low polyreactivity
4 | QVQLVESGGGLVQAGGSLRLSCAASGFTFRRYAMGWYRQAPWKESELVAAITRDGITNYAASVKGRFTLSRDNAKNTVYFQMNILKPEDTAVYYCARRTGRARLDYWGQGTQVSVSS | high polyreactivity
5 | QVQLVESGGGLVQSGGSLRLSCAASVRIFGPYVMGWYRQAPGKERELVAAISTSGTSTYDADSVKGRFTISRDNAKNTVYLQMNSLKPEDTAVYYCAKRSGALHRLMDYWGQGTQVTVSS | low polyreactivity
6 | QVQLVESGGALVQAGGSLRLSCAASGSTFLNYAMRGYRQATGKARELVAGINSGGSTNYADSVKGRFTISRDNAKNTVYLQMNSLKPEDTAVYYCAGDRVGNEYDYWGQGTQVTVSS | low polyreactivity
7 | QVQIEESGGGLDQAGGSLRLTCAASGFTIPSYTRGWYRQAPGKERELVAAISRSDGTTYYAYSVKGRFTISRDNAKNSVYLQLNSLKPEDTAVYYCNKAYKRYGYHYDYWGQGTQVTVSS | high polyreactivity
8 | QVQLVESGGGLVQAGGSLRLSCAASGGTFYHNVMGWYRQAPGKERELVAAIRYSGGRTYYADSVKGRFTLSRDNAKNTVYLQMNSLKPEDTAVYYCAVRSYYGPFGYWGQGTQVTVSS | high polyreactivity
9 | QVQLVESGGGLVQAGGSLRLSCAASGLTFAFYAMGWYRQAPGKEREFVAAITTGGSTYYADSVKGRFTISRDNAKNTVYLQMNSLKPEDTAVYYCAADLYRRRGQFDYWGQGTQVTVSS | high polyreactivity
10 | QVELVESAGGLVQAGGSLRLICAASGLTFDAYAMGWYRQAPGKERELVAAISSGGNTYYADSVKWRFTISRDNAKNTVYLQMNSLKPEDTAVYYCAATFIQVVVNVQLYDYDYWGQGTQVTVSS | low polyreactivity
11 | QVHLVESGGGLVQAGGSLRLSCAASGRTFYSYAMGWYRQAHGKERELVAAINTSGGRKHYADSVKGRFTISRDNAKNTVYLQMNSLKPEDTAVYYCAARYLGGRLSGDYSRYYWGQGTQVTVSS | high polyreactivity
12 | QVQLVESGGGLVQAGGSLRLSCAASGRIFLINAMGWYRQAPGKESEFVAAIRTGGNTYYADSVKGRFTLSRDNAKNTVYLQMNSLKPEDTAVYYCAADRIYPYYRWSGAHRSDVDYWGQGTQVTVSS | low polyreactivity
13 | QDQLVESGGGLLQAGGSLRLSCAASGSTIGYYAMGWYRQAPGKERELVAAINSGDSTSYADSVKGRFTISRDNAKNTVYLQMNSLKPEDTAVYYCAVRPRRHQYGYWGQGTQVTVSS | low polyreactivity
14 | QVQLVESGGGLVQAGGSLRLSCAASGRIFAYYTMGWYRQAPGKERELVAAITKRGGSTYYADSVKGRFTISRDNAKNTVYLQMNSLKPEDTAVYYCAADPHRYRYRSPHDYWGQGTQVTVSS | high polyreactivity
15 | QVQLVESGGGLVQAGGSLRLICAASGYIFAYNTMGWYRQAPGKERELVAAISRSGGSTYYADSVKGRFTISRDNAKNTVYLQMNSLKPEDTAVYSCAARYAPLDFRFDYWGQGTQVTVSS | high polyreactivity
16 | QVQLVESGGGLVQAGGSLRLSCAASGRTFGLYAMGWYRQAPGKERELVATISVSSGSTYYADSVKGRFTISRDNAKYTVYLQMNSLKPEDTAVYYCNVRYKRNRWQYDYWGQGTQVTVSS | high polyreactivity
17 | QVQLVESGGGLVQAGGSLRLSCAASGRTFGWYAMGWYRQAPGKERELVAAITSGTSTYYADSVKGRFTISRDNAKNTVYLQMNSLKPEDTAVYYCAAQQGISNGTGVSATNPMDYWGQGTQVTVSS | low polyreactivity
18 | QVQLVESGGGLVQAGGSLRLSCAASGSTFWANAMGWYRQAPGKERELVAAITSTGITYYADSVKGRFTISRDNAKNTVYLQMNSLKPEDTAVYYCNTRGTYRYDYWGQGTQVTVSS | low polyreactivity
19 | QVQLVESGGRLVQAGGSLRLSCAASGLTFDPNDMGWYRQAPGKERELVAAISWSSGSTYYADSVKGRFTISRDNAKNTVYLQMNSLKPEDTAVYYCAAYFTLLFGTELYDYDYWGQGTQVTVSS | high polyreactivity
20 | QVQLVESGGGLVQAGGSLRLSCAASGRTFKPYGMGWYRQAPGKERELVAAISSRGDITYYADSVKGRFTISRDNAKNTVYLQMNSLKPEDTAVYYCNADLYRKRAWVRRDGSWGQGTQVTVSS | low polyreactivity
21 | QVQLVQSGGGLVQAGGSLRLSCAASGRIIGVNAMGWYRLAPGKERQLVADISSGRSTTYADSVKGRFTISRDNAKNTVYLQMNSLKPEDTALYYCNARFRFRYKFPSRHSWGQGSQVTVSS | high polyreactivity
22 | QVQLVESGGGLVQAGGSLRLSCSASGIIFDSYVMGWYRQAPGKERELVAAISFRGGSTYYADSVKGRFTISRDNAKNTVYLQMNSLKPEDTAVYYCAAEGRGYTEYYWGQGTQVTVSS | high polyreactivity

Row | Sequence | polyreactivity (PSR sort gate)
23 | QVQLVESGGGLVQAGGSLRLRCAASGRTFHAYVMGWYIQAPVKERELVADISSGGDTYADSVKGRFTISRDNAKNTVYLQMNSLKPEDTAVYYCAVDLIQDESGYWGQGTQVTVSS | low polyreactivity
24 | QVQLVESGGGLVQAGGSLRLSCAASGIFIDSNAMGWNRQAPGKERELVAAITSGGSTKYADSVKGRFTISRDTAKNTVYLQMNSLKPVDTAVYYCNAGPAVRSAYSTPYYDYWGLGTQVTVSS | low polyreactivity
25 | QDQLEESGGGLDQAGCSLRLSCAASGFTFNYYTMGWYRQAPVKERELVAVITGGGGSTYYADSVKGRFTISRDNAKNTVYLQMNSLKPEDTAVYYCAAYWGGWSFRYLYDYWGQGTQVTGSS | high polyreactivity
26 | QVQLVESGGGLVQAGGSLRLSCAASGLIFPYYVMGWYRQAPGKERELVAAISVSGGNTYYADSVKGRFTISRDNAKNTVYLQMNSLKPEDTAVYYCAADHYRGSYDYWGQGTQVTVSS | high polyreactivity
27 | QVQLVDSGGGLVQAGGSLRLSCAASGRTSIWNAMGWYRQAPGKERELVASISWSGGSTYYADSVKGRFTISRDNAKNTVYLQMNSLKPEDTAVYYCAKTGYFLVFNEHLHKKRYDSWGQGTQVTVSS | low polyreactivity
28 | QVQLVESGGGLVQAGGSLRLSCAASGRTLFPNVMGWYRQAPGKERELVAAIRGTGGSTYADSVKGRVTISRDNAKNTVYLQMNSLKPEDTAVYYCAAGYPVTRRTIRFDYWGQGTQVTVSS | high polyreactivity
29 | QVQLVESGGGLVQAGGSLRLSCAASGNTFAYYAMGWYRQAPGKERELVAAITSTGVRTYYADSVKGRFTISRDNAKNTVYFQMNSLKPEDTAVYYCNAEYWRVWYLHYYYEYDYWGQGTQVTVSS | high polyreactivity
30 | QVQLQESGGGLVQAGGSLRLSCAASGNISPQLYMGWYRQAQGKEREFVAAIAEGSTTYYAESVKGRFTISRDDAKNTVYLQINSLKSEDTAVYYCAARYENAESFYYWGQGSQVTVSS | high polyreactivity
31 | QVQLVESGGGLVQAGGSLSLSCAASGYTFSYYAMGWYRQAPGKERELVARITYSGGSTYYADSVKGRFTISRDNAKNTGYLQIKSLKPEDTAVYYCAARLRYPYWYYYWGQGTQVTVSS | high polyreactivity
32 | QVQLVESGGGLVQAGGSLRLSCAASGITFVYYDMGWYRQAPGKERELVAAISSDGSTYYADSVKGRFTISRDNAKNTVYLQMNSLKPEDSAVYYCAADYFNYRGYTYLGDYWGQCTQVTVSS | low polyreactivity
33 | QVQLVESGGGLVQAGGSLRLSCAASGFTIDLYAMGWYRQAPGKERELVAAISIRGGSTYYADSVKGRFTISRDNAKNTVYLQMNSLKPEDTAVYYCATVTSRRSYIAYRGTGDYDYWGQGTQVTVSS | low polyreactivity
34 | QVQLEESGGGLVQAGGSLRLRCAASGRTFHAYVMGWYRQAPGKERELVADISSGGDTYADSVKGRFTISRDNAKNTVYLQMNSLKPEDSAVYYCAVDLIQDESGYWGQGTQVNVSS | low polyreactivity
35 | QVQLVESGGGLVQAGGRLRLSCASSGITFWTYAMGWYRQAPGKERELVAAISKSGGSTYYADSVKGRYTISRDNAKNNVYFELNSLKPEDTAVYYCAAKGLRYRDIDYDYWGQGTQVTVSS | low polyreactivity
36 | QVQLVESGGGLVQAGGSLRLSCAASGSIFLYNAMGWYRQAPGKERELVAAISAIGSNTYYADSVKGRFTISRDNAKNTVYLQMNSLKPEDTAVYYCAAESVNVVNFGTRVGYWGQGTQVTVSS | high polyreactivity
37 | QFQLLESGRGLVQAGGSLRLSCAASGRTYNVNAMGWYRKAPGKERELVASISSGTSTNYADSVKGRFTITRDNAKNTVYLQLNRLNREDTAVYYCNADFVWNGYSGRIRDYYWGQATQVTVSS | low polyreactivity
38 | QVQRVESGGGLVQAGGSLRLSCAASGRIFNWYVMGWKRQAPGKERELVAAINSGGITKYADSVKGRFTISRDNAKNTVYLQMNSLKPEDSAVYYCAAYYRRYDYDYWGQGTQVTVSS | high polyreactivity
39 | QVQLVETGGGLVQAGGSLRLSCAPSGSTFNSNVMGWYRQAPGKERELLAAISRSGGNTYYADSVKGRFTISRDNAKNTVYLQMNSLKQEDTAVYYCNVVFFSYYHGAYRGYDYWGQGTQVTVSS | high polyreactivity
40 | QVQLVESGGGLVQAGGSLRLSCGASGSTFYGYAMGWYRQAPGTEREVVAAISSGGSTYYADSVKGRFTISRDNAKNTVYLQMNSLKPEDTAVYYCDAVGYFWITNHKDYYWGQGTQVTVSS | high polyreactivity
41 | QVQLVESGGVLVQAGGSLRLSCAASGSIFNINAMGWYRQAPGKERELVAAMTSGDGTDYADSVKGRFTISRDNAKNTVYLQMNSLKPEDTAVYYCAAEYYWLVPERFDYWGQGTQVTVSS | low polyreactivity
42 | QVQLVESGGGLVQAGGSLRLSCADSGRIFRGNTMGWYRQAPGKERELVATINGRGGSTYYADSVKGRFTISRDNAKNTLYLQMNSLKPEDTAVYYCAARARTTRSATYDYWGQGTQVTVSS | high polyreactivity
43 | QVQLVESGGGLVQAGGSLRLSCAASGSTIQLYAMGWYRQAPGKERELVAAITSSAGRTYYADSVKGRFTISRDNAKNTVYLQMNSLKPEDTAVYYCAKDGSFTFWGQGTQVTVSS | low polyreactivity
